We go through 1 substance from paper PMC4209800.

Assay [1] concerns the target human FcγRIIIa of allotype 158F, GPI-anchored (human) (UniProt P08637). In words: flow cytometry on cells; IgG pre-complexed with equimolar goat F(ab')2 against its light chain (anti-κ for Fog-1, anti-λ for B2), on CHO cells expressing a single human FcγRII or FcγRIII; complexes detected with FITC anti-goat IgG; mean fluorescence of ≥12 000 cells.
Assay [2] addresses human FcγRIIIa of allotype 158V, GPI-anchored (human). Described as above.

Sequence of UniProt P08637 (P08637 17-254): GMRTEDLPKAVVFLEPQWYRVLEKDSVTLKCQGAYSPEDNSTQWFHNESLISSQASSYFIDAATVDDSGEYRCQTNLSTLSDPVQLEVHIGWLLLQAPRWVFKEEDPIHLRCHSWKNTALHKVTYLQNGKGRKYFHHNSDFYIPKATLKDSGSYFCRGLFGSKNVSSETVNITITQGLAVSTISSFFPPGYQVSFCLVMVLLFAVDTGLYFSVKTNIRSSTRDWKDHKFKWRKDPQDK

As to B2 G1Δnab (antibody), the fold lower binding than G1 in assay [1] was found to be 100 fold; in assay [2] it was 50 fold.
